B1: Interferon-induced, double-stranded RNA-activated protein kinase (Homo sapiens), P19525 (parent)
chain: MAGDLSAGFFMEELNTYRQKQGVVLKYQELPNSGPPHDRRFTFQVIIDGREFPEGEGRSKKEAKNAAAKLAVEILNKEKKAVSPLLLTTTNSSEGLSMGNYIGLINRIAQKKRLTVNYEQCASGVHGPEGFHYKCKMGQKEYSIGTGSTKQEAKQLAAKLAYLQILSEETSVKSDYLSSGSFATTCESQSNSLVTSTLASESSSEGDFSADTSEINSNSDSLNSSSLLMNGLRNNQRKAKRSLAPRFDLPDMKETKYTVDKRFGMDFKEIELIGSGGFGQVFKAKHRIDGKTYVIKRVKYNNEKAEREVKALAKLDHVNIVHYNGCWDGFDYDPETSDDSLESSDYDPENSKNSSRSKTKCLFIQMEFCDKGTLEQWIEKRRGEKLDKVLALELFEQITKGVDYIHSKKLIHRDLKPSNIFLVDTKQVKIGDFGLVTSLKNDGKRTRSKGTLRYMSPEQISSQDYGKEVDLYALGLILAELLHVCDTAFETSKFFTDLRDGIISDIFDKKEKTLLQKLLSKKPEDRPNTSEILRTLTVWKKSPEKNERHTC
partner: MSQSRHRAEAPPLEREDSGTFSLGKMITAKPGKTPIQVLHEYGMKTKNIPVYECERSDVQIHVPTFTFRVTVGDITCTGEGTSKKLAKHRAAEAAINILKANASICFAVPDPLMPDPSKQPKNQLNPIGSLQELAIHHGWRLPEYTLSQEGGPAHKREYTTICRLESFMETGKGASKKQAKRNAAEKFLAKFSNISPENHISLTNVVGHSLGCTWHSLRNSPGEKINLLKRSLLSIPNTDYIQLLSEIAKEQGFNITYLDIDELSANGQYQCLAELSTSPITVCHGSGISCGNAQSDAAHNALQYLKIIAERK

Variants of: B1
Details: with PRKRA

Row | effect of a mutation on the interaction | Variant
1 | disrupting interaction strength | D333A
2 | disrupting interaction strength | D331A
3 | disrupting interaction strength | G329A
4 | disrupting interaction strength | D328A
5 | disrupting interaction strength | Y332A

— IntAct's records for PubMed 16785445
